The values that follow are results of earlier work, collected in publication PMC3433420.

Holding throughout (conditions): cited from earlier work
Series [1] concerns the target GRB7 (Homo sapiens) (UniProt Q14451).
In series [2] the target is BLK (Homo sapiens) (UniProt P51451).
Series [3] deals with PLCG2-NC (Homo sapiens) (UniProt P16885).
Series [4] has as its target PLCG2-N (Homo sapiens) (UniProt P16885).
The target of series [5] is YES1 (Homo sapiens) (UniProt P07947).
Series [6] concerns the target RASA1-NC (Homo sapiens) (UniProt P20936).
Series [7] addresses ABL2 (Homo sapiens) (UniProt P42684).
The target of series [8] is GRB2 (Homo sapiens) (UniProt P62993).
Series [9] concerns the target ABL1 (Homo sapiens) (UniProt P00519).
The target of series [10] is NCK2 (Homo sapiens) (UniProt O43639).
Chain of NCK2 (Homo sapiens) (O43639 280-380): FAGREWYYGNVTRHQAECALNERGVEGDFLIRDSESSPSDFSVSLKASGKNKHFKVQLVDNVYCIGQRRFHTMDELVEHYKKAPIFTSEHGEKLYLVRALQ
The target of series [11] is SHC1-PTB (Homo sapiens) (UniProt P29353).
Chain of SHC1-PTB (Homo sapiens) (P29353 483-583): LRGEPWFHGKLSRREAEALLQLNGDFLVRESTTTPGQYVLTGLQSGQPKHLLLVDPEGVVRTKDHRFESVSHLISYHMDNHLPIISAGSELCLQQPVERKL
In series [12] the target is SYK-NC (Homo sapiens) (UniProt P43405).
Series [13] has as its target GRB7 (Homo sapiens) (UniProt Q14451). This is another data set of the same source.
Series [14] has as its target RASA1-C (Homo sapiens) (UniProt P20936).
The target in series [15] is ITK (Homo sapiens) (UniProt Q08881).
In series [16] the target is ABL2 (Homo sapiens) (UniProt P42684). The source holds these as a separate data set.
Chain of ABL2 (Homo sapiens) (P42684 168-268): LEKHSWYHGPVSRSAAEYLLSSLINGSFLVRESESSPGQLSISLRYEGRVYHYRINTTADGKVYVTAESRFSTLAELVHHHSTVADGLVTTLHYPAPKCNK
Series [17] concerns the target PIK3R3-NC (Homo sapiens) (UniProt Q92569).
In series [18] the target is SH2D1B (Homo sapiens) (UniProt O14796).
Chain of SH2D1B (Homo sapiens) (O14796 1-106): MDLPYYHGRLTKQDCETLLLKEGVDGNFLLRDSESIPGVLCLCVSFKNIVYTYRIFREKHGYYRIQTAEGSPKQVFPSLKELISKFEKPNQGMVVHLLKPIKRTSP
Series [19] addresses VAV3 (Homo sapiens) (UniProt Q9UKW4).
Series [20] has as its target TENC1 (Homo sapiens) (UniProt Q63HR2).
Series [21] deals with VAV1 (Homo sapiens) (UniProt P15498).
Chain of VAV1 (Homo sapiens) (P15498 666-770): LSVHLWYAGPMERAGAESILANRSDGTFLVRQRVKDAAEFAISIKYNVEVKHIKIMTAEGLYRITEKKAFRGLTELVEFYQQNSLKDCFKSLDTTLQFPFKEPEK
Series [22] has as its target SHF (Homo sapiens) (UniProt Q7M4L6).
The target in series [23] is PIK3R1-NC (Homo sapiens) (UniProt P27986).
Chain of PIK3R1-NC (Homo sapiens) (P27986 328-723): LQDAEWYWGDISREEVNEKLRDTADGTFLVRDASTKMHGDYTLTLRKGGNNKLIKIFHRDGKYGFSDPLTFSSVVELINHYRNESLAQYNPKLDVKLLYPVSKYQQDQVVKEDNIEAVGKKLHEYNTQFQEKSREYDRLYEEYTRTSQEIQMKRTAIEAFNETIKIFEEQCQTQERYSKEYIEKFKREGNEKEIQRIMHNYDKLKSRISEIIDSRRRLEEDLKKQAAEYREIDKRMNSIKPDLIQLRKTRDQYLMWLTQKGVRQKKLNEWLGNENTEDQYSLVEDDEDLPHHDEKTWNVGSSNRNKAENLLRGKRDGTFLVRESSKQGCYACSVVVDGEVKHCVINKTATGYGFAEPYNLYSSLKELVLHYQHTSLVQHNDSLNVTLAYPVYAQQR
In series [24] the target is PIK3R1-C (Homo sapiens) (UniProt P27986).
Chain of PIK3R1-C (Homo sapiens) (P27986 328-723): as above
Series [25] deals with NCK2 (Homo sapiens) (UniProt O43639). The source holds these as a separate data set.
In series [26] the target is GRB10 (Homo sapiens) (UniProt Q13322).
Chain of GRB10 (Homo sapiens) (Q13322 488-579): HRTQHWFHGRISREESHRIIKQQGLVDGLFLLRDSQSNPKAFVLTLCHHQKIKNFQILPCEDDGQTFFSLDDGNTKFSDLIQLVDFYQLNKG
For series [27], the target named is TNS3 (Homo sapiens) (UniProt Q68CZ2).
Chain of TNS3 (Homo sapiens) (Q68CZ2 1167-1287): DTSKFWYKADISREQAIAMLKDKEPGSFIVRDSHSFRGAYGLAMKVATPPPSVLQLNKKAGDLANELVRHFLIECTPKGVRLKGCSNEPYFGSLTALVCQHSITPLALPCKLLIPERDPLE
For series [28], the target named is SRC (Homo sapiens) (UniProt P12931).
The target of series [29] is SHC1-PTB (Homo sapiens) (UniProt P29353). This is another data set of the same source.
Series [30] has as its target VAV2 (Homo sapiens) (UniProt P52735).
Series [31] concerns the target YES1 (Homo sapiens) (UniProt P07947). This is another data set of the same source.
The target of series [32] is SHB (Homo sapiens) (UniProt Q15464).
Series [33] concerns the target SHE (Homo sapiens) (UniProt Q5VZ18).
Series [34] has as its target SH2D3C (Homo sapiens) (UniProt Q8N5H7).
In series [35] the target is RASA1-NC (Homo sapiens) (UniProt P20936). This is another data set of the same source.
Chain of RASA1-NC (Homo sapiens) (P20936 176-446): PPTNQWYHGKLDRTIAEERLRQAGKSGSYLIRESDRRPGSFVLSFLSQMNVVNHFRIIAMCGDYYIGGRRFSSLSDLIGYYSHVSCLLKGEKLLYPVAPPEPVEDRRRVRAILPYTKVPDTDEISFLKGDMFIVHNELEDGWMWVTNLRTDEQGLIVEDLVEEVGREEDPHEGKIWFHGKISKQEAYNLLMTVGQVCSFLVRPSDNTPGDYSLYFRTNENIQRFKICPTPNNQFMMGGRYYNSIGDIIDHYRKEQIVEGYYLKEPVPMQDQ
Series [36] has as its target SLA (Homo sapiens) (UniProt Q13239).
The target of series [37] is ABL2 (Homo sapiens) (UniProt P42684). The source holds these as a separate data set.
The target of series [38] is PLCG2-NC (Homo sapiens) (UniProt P16885). This is another data set of the same source.
The target in series [39] is PIK3R3-NC (Homo sapiens) (UniProt Q92569). This is another data set of the same source.
In series [40] the target is RASA1-N (Homo sapiens) (UniProt P20936).
Chain of RASA1-N (Homo sapiens) (P20936 176-446): as the sequence (P20936 176-446) above
Series [41] deals with RASA1-NC (Homo sapiens) (UniProt P20936). The source holds these as a separate data set.
Series [42] concerns the target TNS4 (Homo sapiens) (UniProt Q8IZW8).
For series [43], the target named is HSH2D (Homo sapiens) (UniProt Q96JZ2).
Chain of HSH2D (Homo sapiens) (Q96JZ2 29-130): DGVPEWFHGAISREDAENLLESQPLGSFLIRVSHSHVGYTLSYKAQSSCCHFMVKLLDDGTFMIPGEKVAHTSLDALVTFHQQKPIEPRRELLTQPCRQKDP
The target in series [44] is PIK3R1-N (Homo sapiens) (UniProt P27986).
Chain of PIK3R1-N (Homo sapiens) (P27986 328-723): as the sequence (P27986 328-723) above
Series [45] addresses ABL2 (Homo sapiens) (UniProt P42684). The source holds these as a separate data set.
Series [46] addresses PIK3R3-NC (Homo sapiens) (UniProt Q92569). The source holds these as a separate data set.
Series [47] has as its target PIK3R1-NC (Homo sapiens) (UniProt P27986). This is another data set of the same source.
The target in series [48] is PIK3R3-N (Homo sapiens) (UniProt Q92569).
Series [49] addresses PIK3R2-NC (Homo sapiens) (UniProt O00459).
The target in series [50] is PIK3R2-N (Homo sapiens) (UniProt O00459).
Chain of PIK3R2-N (Homo sapiens) (O00459 325-721): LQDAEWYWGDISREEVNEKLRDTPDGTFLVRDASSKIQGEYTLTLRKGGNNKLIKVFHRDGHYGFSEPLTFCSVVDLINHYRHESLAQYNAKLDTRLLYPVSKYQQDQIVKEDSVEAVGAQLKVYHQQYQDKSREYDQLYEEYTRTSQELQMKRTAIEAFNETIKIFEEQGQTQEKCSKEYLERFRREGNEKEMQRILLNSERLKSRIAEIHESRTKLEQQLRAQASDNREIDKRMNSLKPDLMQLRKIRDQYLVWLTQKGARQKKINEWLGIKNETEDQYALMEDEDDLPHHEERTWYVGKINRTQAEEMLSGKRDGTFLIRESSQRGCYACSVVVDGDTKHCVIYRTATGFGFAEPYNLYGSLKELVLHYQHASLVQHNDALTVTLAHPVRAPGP
Series [51] deals with ABL2 (Homo sapiens) (UniProt P42684). This is another data set of the same source.
In series [52] the target is SHC1-PTB (Homo sapiens) (UniProt P29353). This is another data set of the same source.

Read-outs that look alike come from different tables or passages of the source.

Chain of YES1 (Homo sapiens) (P07947 153-260): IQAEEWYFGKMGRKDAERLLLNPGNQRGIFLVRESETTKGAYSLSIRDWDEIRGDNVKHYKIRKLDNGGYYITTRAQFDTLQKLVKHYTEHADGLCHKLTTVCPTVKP
Chain of PLCG2-NC (Homo sapiens) (P16885 527-740): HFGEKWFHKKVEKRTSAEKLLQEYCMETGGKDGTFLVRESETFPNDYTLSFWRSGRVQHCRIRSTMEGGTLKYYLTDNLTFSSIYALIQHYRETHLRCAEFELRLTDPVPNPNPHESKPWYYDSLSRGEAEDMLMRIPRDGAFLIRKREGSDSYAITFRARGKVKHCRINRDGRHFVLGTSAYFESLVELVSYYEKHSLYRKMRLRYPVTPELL
Chain of GRB7 (Homo sapiens) (Q14451 426-532): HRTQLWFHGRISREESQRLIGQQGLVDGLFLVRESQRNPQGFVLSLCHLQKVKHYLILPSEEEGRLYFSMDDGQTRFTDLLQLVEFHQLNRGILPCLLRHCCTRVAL
Chain of TNS4 (Homo sapiens) (Q8IZW8 444-561): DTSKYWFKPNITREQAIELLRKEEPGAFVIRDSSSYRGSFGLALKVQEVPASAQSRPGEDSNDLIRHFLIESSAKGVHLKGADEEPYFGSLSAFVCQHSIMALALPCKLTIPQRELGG
Chain of RASA1-C (Homo sapiens) (P20936 176-446): as the sequence (P20936 176-446) above
Chain of PIK3R2-NC (Homo sapiens) (O00459 325-721): as the sequence (O00459 325-721) above
Chain of SHF (Homo sapiens) (Q7M4L6 318-423): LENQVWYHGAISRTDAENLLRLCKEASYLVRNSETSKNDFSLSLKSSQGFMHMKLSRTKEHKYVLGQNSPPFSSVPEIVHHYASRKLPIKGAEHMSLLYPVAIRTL

…pYHADGGKVd: the apparent Kd (screen) in [1] was 1200 nM; in series [2] it was 718 nM; in series [3] it was 1100 nM; in series [4], 647 nM; in series [5], 1890 nM; in [6], 1400 nM.
Take …pYHNQPLNPd: the apparent Kd (screen) in series [7] is 62 nM; in [8], 2000 nM; in series [9], 523 nM; in series [10], 2000 nM; in series [11] it was 321 nM.
Consider …pYLLNWCVQd, for which the apparent Kd (screen) is 240 nM in series [12]; 456 nM in series [13]; 1950 nM in series [14]; 310 nM in series [15]; 201 nM in series [16]; 1870 nM in series [17]. Moreover, the apparent Kd (screen) in series [18] is 1600 nM; in series [19], 960 nM; in series [20], 1140 nM; in series [21] it was 373 nM; in series [22], 1060 nM; in series [23] it was 1820 nM. Also, the apparent Kd (screen) in [24] was 1850 nM; in series [25], 195 nM; in [26], 353 nM; in series [27], 1890 nM; in series [28] it was 84 nM; in series [29] it was 1500 nM. For the same substance, the apparent Kd (screen) is 472 nM in [30]; 22 nM in series [31]; 276 nM in series [32]; 1380 nM in series [33]; 52 nM in series [34]; 155 nM in series [35].
As to …pYMDVGSDL, the apparent Kd (screen) in series [36] was 2000 nM; in [37] it was 1130 nM; in series [38], 2000 nM; in series [39], 1510 nM; in [40] it was 2000 nM; in series [41], 2000 nM.
Regarding …pYTHQSDVWd, the apparent Kd (screen) in series [42] was 299 nM; in series [43] it was 1130 nM.
Turning to …pYTPMSGNQd, the apparent Kd (screen) was 541 nM in series [44]; 659 nM in series [45]; 576 nM in [46]; 1440 nM in [47]; 888 nM in series [48]; 461 nM in series [49]. Moreover, the apparent Kd (screen) in series [50] was 201 nM.
For the substance …pYWNHSLPPd, the apparent Kd (screen) was 34 nM in series [51] and 509 nM in [52].
